Results taken from patent publication US20110135573A1, “METALLOPROTEINASE 9 AND METALLOPROTEINASE 2 BINDING PROTEINS” (DYAX CORP., priority 2009, published 2011).

How the values were obtained:
Assay in all cases: Biacore 3000 binding to antibody-coated CM5 chip
h-MMP-9/h-TIMP-1 complex = h-MMP-9/h-TIMP-1 complex (Homo sapiens, UniProt P14780); settings: Direct capture, 25° C.
Method: The non competitive inhibition model implies that the ternary complex enzyme-substrate-inhibitor can form. It is however possible that this complex cannot form with bigger substrates, in which case the antibody would behave as a competitive inhibitor. In order to address this issue, the ability of M0237-D02 antibody to bind to the h-MMP-9 when the enzyme is complexed to its natural inhibitor h-TIMP-1 was determined. The reasoning is that if the antibody cannot bind to the h-MMP-9/h-TIMP-1 complex, it would probably behave as a competitive inhibitor of this enzyme in the presence of bigger substrates.
(§1) Experiments were performed at 25° C. with the help of a Biacore 3000 instrument. The MMP-9 binding protein (M0166F10) and the M0237-D02 antibody were coated to a CM5 chip either via standard amine coupling or using an anti-Fc antibody surface. Then either the active, human MMP-9 catalytic domain (BIOMOL, SE-244), the human pro-MMP-9 (R&D, 911-MP), the human TIMP-1 (R&D, 970-TM) or a h-MMP-9/h-TIMP-1 complex were flowed over the antibody surfaces, and binding was recorded.

human TIMP-1 = target: T1, human TIMP-1 (Homo sapiens, UniProt P01033); settings: Direct capture; 25° C.
T1 construct: purchased R&D Systems 970-TM
T1 sequence (P01033 24-207): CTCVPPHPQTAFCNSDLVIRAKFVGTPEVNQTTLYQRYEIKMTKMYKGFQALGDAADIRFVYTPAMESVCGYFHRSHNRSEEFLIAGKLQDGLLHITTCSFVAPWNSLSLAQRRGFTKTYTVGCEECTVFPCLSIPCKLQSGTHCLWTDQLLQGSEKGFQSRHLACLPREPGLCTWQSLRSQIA
Method: as §1

human pro-MMP-9 = target: T2, human pro-MMP-9 (Homo sapiens, UniProt P14780); settings: Direct capture, 25° C.
T2 construct: the human pro-MMP-9 (R&D, 911-MP); purchased R&D Systems 911-MP
T2 sequence (P14780 20-707 limits assumed): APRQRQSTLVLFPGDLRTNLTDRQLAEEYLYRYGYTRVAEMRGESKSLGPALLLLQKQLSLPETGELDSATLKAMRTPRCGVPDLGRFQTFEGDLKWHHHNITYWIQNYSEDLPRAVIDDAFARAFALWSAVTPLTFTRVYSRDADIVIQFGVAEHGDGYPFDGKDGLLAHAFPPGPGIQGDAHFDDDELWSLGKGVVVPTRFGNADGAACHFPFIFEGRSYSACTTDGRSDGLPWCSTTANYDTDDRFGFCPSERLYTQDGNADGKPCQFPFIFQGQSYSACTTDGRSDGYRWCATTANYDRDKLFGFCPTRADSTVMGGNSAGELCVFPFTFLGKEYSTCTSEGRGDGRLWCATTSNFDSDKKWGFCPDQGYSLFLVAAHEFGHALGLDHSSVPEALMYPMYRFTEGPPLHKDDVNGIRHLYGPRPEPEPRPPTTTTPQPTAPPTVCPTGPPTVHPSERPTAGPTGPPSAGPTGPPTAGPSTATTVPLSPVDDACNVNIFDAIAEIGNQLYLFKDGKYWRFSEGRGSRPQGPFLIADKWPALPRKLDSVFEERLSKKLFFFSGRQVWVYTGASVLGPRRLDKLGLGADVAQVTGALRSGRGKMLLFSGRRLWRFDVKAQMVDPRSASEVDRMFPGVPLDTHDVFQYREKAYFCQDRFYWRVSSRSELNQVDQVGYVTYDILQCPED
Method: as §1

[1] = target: T3, Human MMP-9 catalytic domain (Homo sapiens, UniProt P14780); settings: 25° C.
T3 construct: Human MMP-9 catalytic domain (BIOMOL, SE-244); purchased BIOMOL SE-244
T3 sequence (P14780 107-444 limits assumed): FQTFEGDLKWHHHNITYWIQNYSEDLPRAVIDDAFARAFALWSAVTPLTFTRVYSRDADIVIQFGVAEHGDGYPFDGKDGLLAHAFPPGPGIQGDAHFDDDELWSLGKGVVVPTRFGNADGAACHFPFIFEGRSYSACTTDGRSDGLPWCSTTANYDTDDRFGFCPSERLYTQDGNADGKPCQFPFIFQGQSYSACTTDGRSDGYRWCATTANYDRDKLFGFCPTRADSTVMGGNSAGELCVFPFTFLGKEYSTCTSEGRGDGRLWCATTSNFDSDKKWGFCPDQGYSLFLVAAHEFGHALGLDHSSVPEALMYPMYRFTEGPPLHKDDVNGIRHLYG
Method: as §1

Chain of h-MMP-9/h-TIMP-1 complex (P14780 107-444 limits assumed): as above
Chain of h-MMP-9/h-TIMP-1 complex (P01033 24-207 partner): as the sequence (P01033 24-207) above

B1: M0166-F10: inhibitory MMP-9 binding antibody (hMMP-9 antibody inhibitor) (antibody, V domains shown)
VH: EVQLLESGGGLVQPGGSLRLSCAASGFTFSPYLMNWVRQAPGKGLEWVSSIYSSGGGTGYADSVKGRFTISRDNSKNTLYLQMNSLRAEDTAVYYCARIYHSSSGPFYGMDVWGQGTTVTVSS
VL: QSELTQPPSASAAPGQRVTISCSGSSSNIGSNTVTWYQKLPGTAPKLLIYNNYERPSGVPARFSGSKSGTSASLAISGLQSEDEADYYCATWDDSLIANYVFGSGTKVTVLGQPKANP
binding of huTIMP-1/cat-huMMP-9 (h-MMP-9/h-TIMP-1 complex): no binding was observed | binding of huTIMP-1/cat-huMMP-9 (h-MMP-9/h-TIMP-1 complex; listed as 539A-M0166F10): No | binding of huTIMP-1 (human TIMP-1): No | binding of Pro-huMMP-9 (human pro-MMP-9): observed neither | binding of Pro-huMMP-9 (human pro-MMP-9; listed as 539A-M0166F10): ~No | binding of Cat-huMMP-9 ([1]; Direct capture (amine coupling)): binds | binding of Cat-huMMP-9 ([1]; Direct capture (amine coupling), listed as 539A-M0166F10): Yes | binding of Cat-huMMP-9 ([1]; Fc capture (anti-Fc antibody surface)): binds | binding of Cat-huMMP-9 ([1]; Fc capture (anti-Fc antibody surface), listed as 539A-M0166F10): Yes
